One block for each compound: values may come before it.
Experiments:
angiotensin AT1 receptor [1] = target: T1, angiotensin AT1 receptor (Homo sapiens, UniProt P30556); assay: Arrestin-3 (β-arrestin2) mNeonGreen biosensor recruitment, AT1 receptor, HEK 293 T cells (time course); assay type: cell-based
T1 construct: The unmodified receptor can be used, providing estimates of authentic rather than forced coupling to arrestin; host or cells: HEK 293 T cells, BacMam transduction, CMV promoter
T1 sequence (P30556 1-359): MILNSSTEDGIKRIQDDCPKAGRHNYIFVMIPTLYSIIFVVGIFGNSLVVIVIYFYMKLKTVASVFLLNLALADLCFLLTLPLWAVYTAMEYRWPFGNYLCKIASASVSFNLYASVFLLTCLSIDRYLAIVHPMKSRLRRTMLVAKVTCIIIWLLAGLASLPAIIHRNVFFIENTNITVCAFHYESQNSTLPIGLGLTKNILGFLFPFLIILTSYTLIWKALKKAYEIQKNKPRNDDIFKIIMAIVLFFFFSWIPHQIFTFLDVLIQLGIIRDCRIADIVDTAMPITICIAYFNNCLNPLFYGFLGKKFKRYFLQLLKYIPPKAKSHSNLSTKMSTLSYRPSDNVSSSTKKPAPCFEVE
Source text: We and others have developed fluorescent biosensors in which intrinsically fluorescent protein sensors have been incorporated. (Three examples used in this study are R-GECO[22] for Ca^2+, Downward DAG for DAG and cADDis for cAMP[21]). The protein sensors have been engineered to be conformationally-sensitive, such that interaction with the signaling molecule of interest changes the optical properties, enabling the interaction to be detected as a change of fluorescence intensity. Since the proteins are intrinsically fluorescent, no chemical tagging or substrate addition is necessary to generate the optical signal. Here this approach was used to develop a biosensor of receptor-arrestin interaction (Fig. 1a).
We used the kτ method to quantify the kinetics of arrestin recruitment of five AT1 receptor ligands with known varying degrees of arrestin recruitment and bias. The method for quantifying kτ is as follows (illustrated schematically in Supplementary Fig. S5). […] From these fits the fitted parameter values were taken for Plateau and kobs. These values were then multiplied together. […] The data were then fit to the sigmoid curve equation, for example the “log(agonist) vs. response–Variable slope” equation in Prism[46]. From this fit kτ was obtained - it is the value of the asymptote. More precisely, kτ is the Plateau x kobs value for a maximally-effective concentration of ligand.
All that is required is a time course of response measurement at a single, maximally-stimulating concentration of ligand (maximally-stimulating at all time points). […] The data were fit to the association exponential equation to determine Plateau and kobs. kτ was then calculated - it is the Plateau multiplied by kobs for a maximally-stimulating concentration of ligand, as explained in the Appendix.
The first biosensors that positioned analyte binding domains in this position used a circularly permuted version of the fluorescent protein, and include the GCaMP and GECO Ca^2+ sensors, the upward and downward DAG sensors, and the caDDis cAMP sensor[21],[22]. More recently it has become clearer that if the termini of the analyte binding domain are close to one another, then the entire binding domain can be inserted into the 7th stave of the fluorescent protein without having to circularly permute the fluorescent protein[60].
HEK 293 T cells were cultured in Eagle’s minimum essential media (EMEM) supplemented with 10% fetal bovine serum (FBS) and penicillin-streptomycin at 37 °C in 5% CO2. For BacMam transduction, cells were resuspended in media at a density of 52,000 cells per 100 μL. […] For each experiment 4.24 × 10^8 viral genes of arrestin virus were added to each well. For multiplex experiments, 4.79 × 10^8 viral genes of the Red DAG sensor or 6.18 × 10^8. Viral genes of the Red cADDis (cAMP) sensor were added with the arrestin sensor. For experiments with the R-GECO sensor, 8.46 × 10^8 viral genes were added to each well. The viruses carrying the AT1 and V2 receptors were added such that 2.12 × 10^8 and 3.04 × 10^8 viral genes went into each well, respectively. For the β2-adrenoceptor experiment, 4.28 × 10^8 viral genes for the receptor and 2.13 × 10^8 viral genes of GPCR kinase 2 were added to each well.

angiotensin AT1 receptor [2] = target: T1, angiotensin AT1 receptor; assay: Ca^2+ mobilization, R-GECO sensor, AT1 receptor, HEK 293 T cells; assay type: cell-based; details: 32 μM; mean kτ of ligand divided by that for AngII
Source text: Biased agonism quantification relates the capacity of a ligand to activate one pathway relative to one or more other pathways[9]–[12]. Numerous methods and scales have been developed and successfully applied[8],[47],[53]–[59]. One approach is to compare ligand efficacy, i.e. the capacity of the agonist-occupied receptor to generate the signal. kτ provides such an efficacy value, being the initial rate of signal generation by the agonist-occupied receptor. Here kτ is used to assess signaling bias of the AT1 receptor ligands described above. […] In this study, G-protein signaling and arrestin recruitment was measured using the same fluorescent biosensor assay modality, enabling near-identical conditions to be employed in comparing the pathways. The Gq pathway was quantified at the level of diacylglycerol using the Red Downward DAG sensor[21] (Fig. 5b), and, one step downstream, Ca^2+ mobilization measured using the R-GECO sensor[22] […]
HEK 293 T cells were cultured in Eagle’s minimum essential media (EMEM) supplemented with 10% fetal bovine serum (FBS) and penicillin-streptomycin at 37 °C in 5% CO2. […] Thirty minutes prior to fluorescence plate reader or imaging experiments, the media in each well was replaced with 150 μL of Dulbecco’s phosphate buffered saline (DPBS) supplemented with Ca^2+ (0.9 mM) and Mg^2+ (0.5 mM). […]

β2-adrenoceptor = assay: Arrestin sensor response via the β2-adrenoceptor; assay type: cell-based; details: 10 μM isoproterenol; cells also transduced with GPCR kinase 2; n = 4; Biotek Synergy Mx
Method: HEK 293 T cells were cultured in Eagle’s minimum essential media (EMEM) supplemented with 10% fetal bovine serum (FBS) and penicillin-streptomycin at 37 °C in 5% CO2. For BacMam transduction, cells were resuspended in media at a density of 52,000 cells per 100 μL. […] For each experiment 4.24 × 10^8 viral genes of arrestin virus were added to each well. For multiplex experiments, 4.79 × 10^8 viral genes of the Red DAG sensor or 6.18 × 10^8. Viral genes of the Red cADDis (cAMP) sensor were added with the arrestin sensor. For experiments with the R-GECO sensor, 8.46 × 10^8 viral genes were added to each well. The viruses carrying the AT1 and V2 receptors were added such that 2.12 × 10^8 and 3.04 × 10^8 viral genes went into each well, respectively. For the β2-adrenoceptor experiment, 4.28 × 10^8 viral genes for the receptor and 2.13 × 10^8 viral genes of GPCR kinase 2 were added to each well. The cell/transduction mixture was then seeded into 96-well plates and incubated for ~24 hours at 37 °C in 5% CO2. Thirty minutes prior to fluorescence plate reader or imaging experiments, the media in each well was replaced with 150 μL of Dulbecco’s phosphate buffered saline (DPBS) supplemented with Ca^2+ (0.9 mM) and Mg^2+ (0.5 mM).
Fluorescence plate reader experiments were performed on the BioTek Synergy Mx (BioTek, Winooski, VT) and BMG CLARIOstar (BMG Labtech, Cary, NC) in 96 well plates.

angiotensin AT1 receptor [3] = target: angiotensin AT1 receptor (UniProt P30556)
angiotensin AT1 receptor [4] = target: angiotensin AT1 receptor (UniProt P30556); assay: conformation-sensitive fluorescent arrestin biosensor in live cells; HEK 293 T cells with sensor and AT1 receptor; AngII 10 nM-32 μM; time courses fit to the association exponential, Plateau x kobs against concentration fit to a sigmoid, kτ is its top; DPBS with Ca2+ and Mg2+; Biotek Synergy Mx
angiotensin AT1 receptor [5] = target: angiotensin AT1 receptor (UniProt P30556); assay: conformation-sensitive fluorescent arrestin biosensor in live cells; as a6, 32 μM SII
angiotensin AT1 receptor [6] = target: angiotensin AT1 receptor (UniProt P30556); assay: conformation-sensitive fluorescent arrestin biosensor in live cells; as a6, 32 μM TRV120026
angiotensin AT1 receptor [7] = target: angiotensin AT1 receptor (UniProt P30556); assay: conformation-sensitive fluorescent arrestin biosensor in live cells; as a6, 32 μM TRV120045
angiotensin AT1 receptor [8] = target: angiotensin AT1 receptor (UniProt P30556); assay: conformation-sensitive fluorescent arrestin biosensor in live cells; HEK 293 T cells with sensor and AT1 receptor; single maximally-stimulating concentration, 32 μM AngII; time course fit to the association exponential, kτ = Plateau x kobs; ΔF/F normalised to baseline; Biotek Synergy Mx (Fig. 5a) or BMG CLARIOstar (Fig. 1b)
angiotensin AT1 receptor [9] = target: angiotensin AT1 receptor (UniProt P30556); assay: conformation-sensitive fluorescent arrestin biosensor in live cells; as a1, concentration-response with the agonist SII
angiotensin AT1 receptor [10] = target: angiotensin AT1 receptor (UniProt P30556); assay: conformation-sensitive fluorescent arrestin biosensor in live cells; as a1, concentration-response with the agonist TRV026 (TRV120026)
angiotensin AT1 receptor [11] = target: angiotensin AT1 receptor (UniProt P30556); assay: conformation-sensitive fluorescent arrestin biosensor in live cells; as a6, 32 μM TRV120055
angiotensin AT1 receptor [12] = target: angiotensin AT1 receptor (UniProt P30556); assay: conformation-sensitive fluorescent arrestin biosensor in live cells; as a1, concentration-response with the agonist TRV045 (TRV120045)
angiotensin AT1 receptor [13] = target: angiotensin AT1 receptor (UniProt P30556); assay: conformation-sensitive fluorescent arrestin biosensor in live cells; as a1, concentration-response with the agonist TRV055 (TRV120055)
[14] = test system: parathyroid hormone 1 (PTH1) receptor; details: endosomal compartment; cited from earlier work
Source text: The kinetics/dynamics of G-protein-coupled receptor (GPCR) signaling is of increasing interest in elaborating the biology and therapeutic potential of these receptors[1]–[3]. The time frame of GPCR signal transduction is dependent on the signaling pathway, regulation of signaling mechanism, and location of the receptor in the cell (spatiotemporal signaling). Temporal dynamics of signaling are being elucidated and applied to develop new therapeutics. For example, the parathyroid hormone 1 (PTH1) receptor can signal persistently over time after partitioning into the endosomal compartment. Thi ...

kτ (% AngII), arrestin (single concentration) (angiotensin AT1 receptor [1]; 32 μM, mean kτ of ligand divided by that for AngII): 49 % AngII | Emax, 1 minute time point (angiotensin AT1 receptor [1]; 1 min (rise phase), sigmoid fit, representative experiments): 64 % Ang II | Emax, 20 minute time point (angiotensin AT1 receptor [1]; 20 min (plateau), sigmoid fit, representative experiments): 88 % Ang II | EC50 (angiotensin AT1 receptor [1]; EC50, 1 minute time point, 1 min (rise phase), sigmoid fit, representative experiments): 620 nM | EC50 (angiotensin AT1 receptor [1]; EC50, 20 minute time point, 20 min (plateau), sigmoid fit, representative experiments): 210 nM | Kd (angiotensin AT1 receptor [1]; calculated from the mean pKA value, L50 of Plateau × kobs vs concentration curve, read-out: KA): 1100 nM | kτ (% AngII), arrestin (concentration-response) (angiotensin AT1 receptor [1]; concentration-response method, mean kτ of ligand divided by that for AngII): 48 % AngII | Emax, kinetic model initial rate (angiotensin AT1 receptor [1]; concentration-response of the initial rate, repeated from Table 1 in Supplementary Table S2): 48 % Ang II | kτ (% AngII), calcium (angiotensin AT1 receptor [2]): 12 % AngII
Compound: CC[C@H](C)[C@H](NC(=O)[C@@H]1CCCN1C(=O)[C@H](Cc1c[nH]cn1)NC(=O)[C@@H](NC(=O)[C@@H](NC(=O)[C@@H](NC(=O)[C@H](CCCNC(=N)N)NC(=O)CNC)C(C)C)[C@@H](C)CC)[C@@H](C)CC)C(=O)O [SII, [sarcosine^1, Ile^4, Ile^8]AngII]

Compound: CC(C)NCC(O)c1ccc(O)c(O)c1 (stereo not shown) [isoproterenol]
ΔF/F, β2-adrenoceptor (β2-adrenoceptor): 0.84

KA from the operational model fit of the arrestin sensor concentration-response at the single time point 1 min (angiotensin AT1 receptor [3]): 1200 nM | KA from the operational model fit of the arrestin sensor concentration-response at the single time point 20 min (angiotensin AT1 receptor [3]): 530 nM
Compound: [sarcosine^1, Ile^4, Ile^8]AngII (peptide)

kτ (initial rate of arrestin recruitment) with AngII (angiotensin AT1 receptor [4]): 0.41 NFU.min^-1 | kτ (initial rate of arrestin recruitment) with 32 μM SII (angiotensin AT1 receptor [5]): 0.2 NFU.min^-1 | kτ (initial rate of arrestin recruitment) with 32 μM TRV120026 (angiotensin AT1 receptor [6]): 0.25 NFU.min^-1 | kτ (initial rate of arrestin recruitment) with 32 μM TRV120045 (angiotensin AT1 receptor [7]): 0.38 NFU.min^-1 | kτ (initial rate of arrestin recruitment) with 32 μM AngII (angiotensin AT1 receptor [8]): 0.4 NFU.min^-1 | t1/2 of arrestin recruitment (0.693/kobs) with 32 μM AngII (angiotensin AT1 receptor [8]): 45 s | ΔF/F (fluorescence after agonist divided by baseline) with 32 µM AngII (angiotensin AT1 receptor [8]): 0.56 | kτ (initial rate of arrestin recruitment) with SII (angiotensin AT1 receptor [9]): 0.2 NFU.min^-1 | kτ (initial rate of arrestin recruitment) with TRV026 (angiotensin AT1 receptor [10]): 0.25 NFU.min^-1 | kτ (initial rate of arrestin recruitment) with 32 μM TRV120055 (angiotensin AT1 receptor [11]): 0.37 NFU.min^-1 | kτ (initial rate of arrestin recruitment) with TRV045 (angiotensin AT1 receptor [12]): 0.36 NFU.min^-1 | kτ (initial rate of arrestin recruitment) with TRV055 (angiotensin AT1 receptor [13]): 0.38 NFU.min^-1
Compound: arrestin-3 (β-arrestin2) fluorescent biosensor incorporating mNeonGreen (from UniProt P32121 1-409)

Compound: parathyroid hormone [PTH]
persistent signaling (in words) [14]: persistent signaling

Reference: PMC7000712, “A kinetic method for measuring agonist efficacy and ligand bias using high resolution biosensors and a kinetic data analysis framework” (Scientific Reports, 2020)
